From patent US20240360203A1

Legend:
[1] = target: WIV1 spike protein (bat SARS-like coronavirus WIV1); test: cell-based or functional assay
[2] = target: SARS-CoV-1 spike protein (SARS-CoV-1) (UniProt P59594); test: cell-based or functional assay
[3] = target: HIV-1 Env peptide, biotinylated (negative control) (HIV-1); test: DELFIA on captured biotin-peptide; set-up: unit not given beside the values

Row | Substance | pseudovirus neutralization Emax (% neutralization) [1] | pseudovirus neutralization Emax (% neutralization) [2] | AUC [3]
1 | Bebtelovimab (antibody) | 6.99 | 8 | –
2 | isotype control (palivizumab variable regions expressed as human IgG1 with LS mutation in the Fc region) (antibody) | – | – | 41500
